B1: PTPRD (parent)
chain: LTKLREMGREKCHQYWPAERSARY

Variants of: B1
Experiment: protein stability index of a GFP-peptide fusion (GPS, HEK-293T) (PSI 1-6); higher = more stable
Settings: c terminus: a fixed tail appended
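Also: lentivirally expressed fusions sorted by FACS into six bins by GFP to DsRed ratio, PSI derived from sequencing read proportions per bin multiplied by bin number.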

| Variant | protein stability index |
| --- | --- |
| LTKLREMGMEKCHQYWPAERSARY [R9M] | 2.8 |
| LTKLREMGGEKCHQYWPAERSARY [R9G] | 2.79 |
| LTKLREMGQEKCHQYWPAERSARY [R9Q] | 3.05 |
| LTKLREMGNEKCHQYWPAERSARY [R9N] | 2.68 |
| LTKLREMGHEKCHQYWPAERSARY [R9H] | 2.73 |
| LTKLREMGFEKCHQYWPAERSARY [R9F] | 2.38 |
| LTKLREMGCEKCHQYWPAERSARY [R9C] | 2.15 |
| LTKLREMGIEKCHQYWPAERSARY [R9I] | 2.29 |
| LTKLREMGYEKCHQYWPAERSARY [R9Y] | 2.16 |
| LTKLREMGDEKCHQYWPAERSARY [R9D] | 3.48 |
| LTKLREMGAEKCHQYWPAERSARY [R9A] | 2.64 |
| LTKLREMGKEKCHQYWPAERSARY [R9K] | 2.84 |
| LTKLREMGPEKCHQYWPAERSARY [R9P] | 2.53 |
| LTKLREMGSEKCHQYWPAERSARY [R9S] | 2.81 |
| LTKLREMGWEKCHQYWPAERSARY [R9W] | 2.04 |
| LTKLREMGLEKCHQYWPAERSARY [R9L] | 2.73 |
| LTKLREMGEEKCHQYWPAERSARY [R9E] | 2.86 |
| LTKLREMGTEKCHQYWPAERSARY [R9T] | 2.65 |
| LTKLRECGREKCHQYWPAERSARY [M7C] | 2.23 |
| LTKLREFGREKCHQYWPAERSARY [M7F] | 2.41 |
| LTKLREEGREKCHQYWPAERSARY [M7E] | 3.25 |
| LTKLREAGREKCHQYWPAERSARY [M7A] | 2.57 |
| LTKLREQGREKCHQYWPAERSARY [M7Q] | 2.56 |
| LTKLREGGREKCHQYWPAERSARY [M7G] | 2.64 |

| Variant | protein stability index |
| --- | --- |
| LTKLRERGREKCHQYWPAERSARY [M7R] | 2.35 |
| LTKLREDGREKCHQYWPAERSARY [M7D] | 3.14 |
| LTKLRELGREKCHQYWPAERSARY [M7L] | 1.9 |
| LTKLREIGREKCHQYWPAERSARY [M7I] | 2.54 |
| LTKLREWGREKCHQYWPAERSARY [M7W] | 1.67 |
| LTKLREPGREKCHQYWPAERSARY [M7P] | 2.67 |
| LTKLRENGREKCHQYWPAERSARY [M7N] | 2.77 |
| LTKLRESGREKCHQYWPAERSARY [M7S] | 2.55 |
| LTKLREYGREKCHQYWPAERSARY [M7Y] | 2.7 |
| LTKLRETGREKCHQYWPAERSARY [M7T] | 2.71 |
| LTKLREVGREKCHQYWPAERSARY [M7V] | 2.56 |
| LTKLREHGREKCHQYWPAERSARY [M7H] | 2.75 |
| LTKLREKGREKCHQYWPAERSARY [M7K] | 2.98 |
| LTKLNEMGREKCHQYWPAERSARY [R5N] | 2.76 |
| LTKLFEMGREKCHQYWPAERSARY [R5F] | 2.21 |
| LTKLKEMGREKCHQYWPAERSARY [R5K] | 2.29 |
| LTKLIEMGREKCHQYWPAERSARY [R5I] | 2.44 |
| LTKLMEMGREKCHQYWPAERSARY [R5M] | 2.39 |
| LTKLQEMGREKCHQYWPAERSARY [R5Q] | 2.91 |
| LTKLAEMGREKCHQYWPAERSARY [R5A] | 2.53 |
| LTKLHEMGREKCHQYWPAERSARY [R5H] | 2.58 |
| LTKLPEMGREKCHQYWPAERSARY [R5P] | 2.75 |
| LTKLVEMGREKCHQYWPAERSARY [R5V] | 2.18 |
| LTKLSEMGREKCHQYWPAERSARY [R5S] | 3.17 |

| Variant | protein stability index |
| --- | --- |
| LTKLDEMGREKCHQYWPAERSARY [R5D] | 3.32 |
| LTKLEEMGREKCHQYWPAERSARY [R5E] | 3.16 |
| LTKLYEMGREKCHQYWPAERSARY [R5Y] | 2.23 |
| LTKLGEMGREKCHQYWPAERSARY [R5G] | 3.18 |
| LTKLCEMGREKCHQYWPAERSARY [R5C] | 2.62 |
| LTKLLEMGREKCHQYWPAERSARY [R5L] | 2.4 |
| LTKLWEMGREKCHQYWPAERSARY [R5W] | 2.24 |
| LTKLTEMGREKCHQYWPAERSARY [R5T] | 2.38 |
| LTKLRQMGREKCHQYWPAERSARY [E6Q] | 2.1 |
| LTKLRHMGREKCHQYWPAERSARY [E6H] | 2.09 |
| LTKLRMMGREKCHQYWPAERSARY [E6M] | 2.18 |
| LTKLRTMGREKCHQYWPAERSARY [E6T] | 2.52 |
| LTKLRPMGREKCHQYWPAERSARY [E6P] | 2.33 |
| LTKLRYMGREKCHQYWPAERSARY [E6Y] | 1.7 |
| LTKLRWMGREKCHQYWPAERSARY [E6W] | 1.82 |
| LTKLRVMGREKCHQYWPAERSARY [E6V] | 1.73 |
| LTKLRRMGREKCHQYWPAERSARY [E6R] | 2.38 |
| LTKLRIMGREKCHQYWPAERSARY [E6I] | 1.9 |
| LTKLRLMGREKCHQYWPAERSARY [E6L] | 2.13 |
| LTKLRSMGREKCHQYWPAERSARY [E6S] | 1.98 |
| LTKLRAMGREKCHQYWPAERSARY [E6A] | 2.41 |
| LTKLRFMGREKCHQYWPAERSARY [E6F] | 2.45 |
| LTKLRNMGREKCHQYWPAERSARY [E6N] | 1.8 |
| LTKLRGMGREKCHQYWPAERSARY [E6G] | 2.23 |

| Variant | protein stability index |
| --- | --- |
| LTKLRDMGREKCHQYWPAERSARY [E6D] | 2.66 |
| LTKLRCMGREKCHQYWPAERSARY [E6C] | 1.75 |
| LTKLRKMGREKCHQYWPAERSARY [E6K] | 1.95 |
| LTKLREMGRWKCHQYWPAERSARY [E10W] | 2.15 |
| LTKLREMGRCKCHQYWPAERSARY [E10C] | 2.65 |
| LTKLREMGRHKCHQYWPAERSARY [E10H] | 2.05 |
| LTKLREMGRGKCHQYWPAERSARY [E10G] | 2.25 |
| LTKLREMGRFKCHQYWPAERSARY [E10F] | 2.13 |
| LTKLREMGRDKCHQYWPAERSARY [E10D] | 2.3 |
| LTKLREMGRQKCHQYWPAERSARY [E10Q] | 1.97 |
| LTKLREMGRPKCHQYWPAERSARY [E10P] | 2.71 |
| LTKLREMGRVKCHQYWPAERSARY [E10V] | 2.28 |
| LTKLREMGRYKCHQYWPAERSARY [E10Y] | 2.48 |
| LTKLREMGRAKCHQYWPAERSARY [E10A] | 2.08 |
| LTKLREMGRLKCHQYWPAERSARY [E10L] | 1.99 |
| LTKLREMGRKKCHQYWPAERSARY [E10K] | 2.03 |
| LTKLREMGRSKCHQYWPAERSARY [E10S] | 2.3 |
| LTKLREMGRNKCHQYWPAERSARY [E10N] | 2.46 |
| LTKLREMGRRKCHQYWPAERSARY [E10R] | 2.42 |
| LTKLREMGRTKCHQYWPAERSARY [E10T] | 1.87 |
| LTKLREMGRMKCHQYWPAERSARY [E10M] | 1.83 |
| LTKLREMGRIKCHQYWPAERSARY [E10I] | 1.91 |

Reference: the supplement of paper PMC10567573
